This note sets out measurements from PMC11438860, “Human 8-oxoguanine glycosylase OGG1 binds nucleosome at the dsDNA ends and the super-helical locations”.

In one series the target is OGG1(K249Q) (human, UniProt O15527 1-345, K249Q). In words: cryo-EM; protein:DNA 1.5:1; 8-oxoG flipped out, DNA bent 65 degrees; 3.6 A; EMSA: 40 mM HEPES pH 7.4, 50 mM NaCl, 5 mM bME, 5% glycerol, 30 min on ice, 4-20% native gel; cryo-EM OGG1-DNA assembly: 20 mM HEPES pH 7.4, 100 mM NaCl, 5 mM bME, on ice. The following applies: protein: recombinant; tags: N-terminal 6His; blunt.
OGG1(K249Q), sequence (O15527 whole entry K249Q): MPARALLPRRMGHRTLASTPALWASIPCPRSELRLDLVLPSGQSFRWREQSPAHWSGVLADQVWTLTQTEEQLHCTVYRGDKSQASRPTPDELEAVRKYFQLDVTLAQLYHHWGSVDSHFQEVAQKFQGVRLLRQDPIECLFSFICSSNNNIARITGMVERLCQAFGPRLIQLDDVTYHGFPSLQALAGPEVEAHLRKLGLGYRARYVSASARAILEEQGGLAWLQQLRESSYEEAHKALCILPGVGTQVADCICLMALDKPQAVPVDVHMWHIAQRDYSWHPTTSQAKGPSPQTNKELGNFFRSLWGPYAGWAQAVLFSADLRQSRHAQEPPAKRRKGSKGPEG

A further series has as its target full-length OGG1 (EMSA) (human, UniProt O15527 1-345). Description: EMSA; 2.5 uM DNA; all DNA shifted at 5 uM protein or above; two super-shift bands; EMSA: 40 mM HEPES pH 7.4, 50 mM NaCl, 5 mM bME, 5% glycerol, 30 min on ice, 4-20% native gel; cryo-EM OGG1-DNA assembly: 20 mM HEPES pH 7.4, 100 mM NaCl, 5 mM bME, on ice. The following applies: protein: recombinant; blunt. In general terms: In EMSA bound probe runs differently from free probe, usually more slowly.

full-length OGG1 (EMSA), sequence (O15527 whole entry): as the sequence (O15527 whole entry K249Q) above, with Q249K counted along it

B1: 35-bp 8-oxoG DNA (dsDNA)
DNA 1: ATGCCTCGCAGAATCCCGCTGCCGAGGCCGCTCAA
DNA 2: TTGAGCGGCCTCGGCAGCGGGATTCTGCGAGGCAT
modifications: 8-oxo-dG at position 18 of strand 1 (text numbers it 17), within unmethylated Cp-8-oxoG
As to B1, the binding result in the series with OGG1(K249Q) and with full-length OGG1 (EMSA) was “binds” in each case.
